{
  "source": "paper PMC4240730",
  "key": {"[1]": {"target": "basigin (immunoglobulin domains 1 and 2 of the short isoform, residues 22-205) (UniProt P35613)", "assay": "SPR"}, "[2]": {"target": "basigin (immunoglobulin domains 1 and 2 of the short isoform, residues 22-205) (UniProt P35613)", "assay": "AUC"}, "basigin (Homo sapiens)": {"target": "basigin (Homo sapiens) (UniProt P35613)", "conditions": "cited from earlier work"}},
  "data": [
    {"substance": "PfRH5ΔNL (from UniProt Q8IFM5 140-526) (domain or fragment)", "values": [
      {"measurement": "Kd", "setting": "[1]", "value": 1.3, "unit": "µM"}
    ]},
    {"substance": "PfRH5ΔN (residues K140-Q526) (from UniProt Q8IFM5 140-526) (domain or fragment)", "values": [
      {"measurement": "stoichiometry N", "setting": "[2]", "value": 1}
    ]},
    {"substance": "PfRH5 (from UniProt Q8IFM5)", "values": [
      {"measurement": "Kd", "setting": "basigin (Homo sapiens)", "value": 1.1, "unit": "µM"}
    ]}
  ]
}
